Experimental data from article PMC6859848 (2019).
Where two headings read alike, the source gives them in different places.

What was measured:
[1] = tested on: rG1 (5'-Alexa Fluor 647) (RNA, G4) ACCGGGGCAGGGGAAGAGGGGG; assay: fluorescence quenching titration; settings: K+ 100 mM (KCl); 10 mM Tris, 5% DMSO; 100 nM RNA; single site fit; apparent
HNRNPH1 full-length [2] = target: T1, HNRNPH1 full-length (UniProt P31943 1-449); assay: competition
T1 sequence: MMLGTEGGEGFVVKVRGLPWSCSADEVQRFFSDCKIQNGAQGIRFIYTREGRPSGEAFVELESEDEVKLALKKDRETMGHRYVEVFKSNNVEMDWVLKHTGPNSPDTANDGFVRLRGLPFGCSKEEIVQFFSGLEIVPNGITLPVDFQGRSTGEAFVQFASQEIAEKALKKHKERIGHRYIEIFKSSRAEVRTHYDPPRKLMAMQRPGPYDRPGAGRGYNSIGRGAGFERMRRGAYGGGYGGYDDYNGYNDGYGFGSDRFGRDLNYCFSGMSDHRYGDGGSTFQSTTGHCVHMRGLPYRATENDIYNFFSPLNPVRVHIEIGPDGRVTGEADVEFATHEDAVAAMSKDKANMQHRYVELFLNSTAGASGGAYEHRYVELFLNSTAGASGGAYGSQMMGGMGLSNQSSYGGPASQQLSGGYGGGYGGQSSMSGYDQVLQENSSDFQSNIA

HNRNPH1 full-length [3] = target: T1, HNRNPH1 full-length; assay: EMSA
HNRNPH1 full-length [4] = target: T1, HNRNPH1 full-length; assay: EMSA; remark: listed apart in the source
HNRNPH1 qRRM3 = target: T2, HNRNPH1 qRRM3 (UniProt P31943 277-381); assay: SPR
T2 sequence: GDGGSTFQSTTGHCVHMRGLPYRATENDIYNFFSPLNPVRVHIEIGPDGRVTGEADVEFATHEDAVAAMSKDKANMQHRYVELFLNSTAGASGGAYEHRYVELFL

[5] = target: T3, HNRNPH1 qRRM2-3 (qRRM2-GYR-qRRM3) (UniProt P31943 103-381); assay: SPR
T3 sequence: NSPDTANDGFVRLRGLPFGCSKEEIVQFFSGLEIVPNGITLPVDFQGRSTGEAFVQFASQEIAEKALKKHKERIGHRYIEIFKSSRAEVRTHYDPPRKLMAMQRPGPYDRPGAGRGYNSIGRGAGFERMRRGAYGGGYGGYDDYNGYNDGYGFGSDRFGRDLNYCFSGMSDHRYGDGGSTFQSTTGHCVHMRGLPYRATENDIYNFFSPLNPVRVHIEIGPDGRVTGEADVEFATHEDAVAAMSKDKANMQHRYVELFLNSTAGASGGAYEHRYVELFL

HNRNPH1 qRRM2 = target: T4, HNRNPH1 qRRM2 (UniProt P31943 103-194); assay: SPR
T4 sequence: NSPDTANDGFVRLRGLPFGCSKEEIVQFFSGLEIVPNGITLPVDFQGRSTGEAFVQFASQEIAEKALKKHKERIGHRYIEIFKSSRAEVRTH

HNRNPH1 full-length [6] = target: T1, HNRNPH1 full-length; assay: SPR
HNRNPH1 qRRM1 = target: T5, HNRNPH1 qRRM1 (UniProt P31943 1-102); assay: SPR
T5 sequence: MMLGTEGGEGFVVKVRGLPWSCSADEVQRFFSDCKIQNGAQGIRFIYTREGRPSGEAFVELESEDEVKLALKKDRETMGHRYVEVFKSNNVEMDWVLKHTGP

HNRNPH1 delta1-103 = target: T6, HNRNPH1 delta1-103 (UniProt P31943 104-449, del1-103); assay: SPR
T6 sequence: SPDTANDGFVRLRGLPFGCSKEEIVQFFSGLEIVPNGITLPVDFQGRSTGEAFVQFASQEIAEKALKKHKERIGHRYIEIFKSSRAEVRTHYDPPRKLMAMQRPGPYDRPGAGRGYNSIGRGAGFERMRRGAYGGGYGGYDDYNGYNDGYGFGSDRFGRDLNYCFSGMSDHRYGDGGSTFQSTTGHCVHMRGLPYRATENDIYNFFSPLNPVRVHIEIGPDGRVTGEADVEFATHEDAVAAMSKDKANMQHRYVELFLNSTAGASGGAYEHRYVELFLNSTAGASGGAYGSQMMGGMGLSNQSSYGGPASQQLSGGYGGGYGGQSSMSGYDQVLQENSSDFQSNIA

HNRNPH1 qRRM1-2 = target: T7, HNRNPH1 qRRM1-2 (UniProt P31943 1-194); assay: SPR
T7 sequence: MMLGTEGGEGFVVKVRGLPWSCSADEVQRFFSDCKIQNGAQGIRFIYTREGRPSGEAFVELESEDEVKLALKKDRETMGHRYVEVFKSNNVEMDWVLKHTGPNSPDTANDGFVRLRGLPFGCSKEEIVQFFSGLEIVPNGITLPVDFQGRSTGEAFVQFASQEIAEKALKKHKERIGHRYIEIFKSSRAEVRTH

HNRNPH1 full-length [7] = target: T1, HNRNPH1 full-length; assay: antibody-based RNA binding assay

## NCCOc1cc(C(=O)Nc2cc(OCCN)c3ccccc3n2)nc(C(=O)Nc2cc(OCCN)c3ccccc3n2)c1
[1]
  KD^app: 4600 nM

## ACCGGGGCAGGGGAAGAGGGGGAUU (structured_RNA) [rG1 nonbiotinylated competitor]
HNRNPH1 full-length [2]
  IC50: 84 nM

## AGCAGAGGUGGGCGGGGAGGAGGAC (ssRNA) [rG2a]
HNRNPH1 full-length [3]
  binding result: binds

## GAUCGUGGAGGCAUGAGCAGAGGUG (ssRNA) [Linker]
HNRNPH1 full-length [4]
  binding result: no binding

## ACCGGGGCAGGGGAAGAGGGGG (structured_RNA) [rG1 5'-biotin (SPR)]
HNRNPH1 qRRM3
  Kd: 315 nM
[5]
  Kd: 97 nM
HNRNPH1 qRRM2
  Kd: 22 nM
HNRNPH1 full-length [6]
  Kd: 4.8 nM
HNRNPH1 qRRM1
  Kd: 30 nM
HNRNPH1 delta1-103
  Kd: 2.4 nM
HNRNPH1 qRRM1-2
  Kd: 1.5 nM

## GUGGGCGGGGAGGAGGACGCGGUGGAAU (ssRNA) [rG2b]
HNRNPH1 full-length [3]
  binding result: binds

## ACCGGGGCAGGGGAAGAGGGGGAUU (structured_RNA) [rG1 3'-biotin]
HNRNPH1 full-length [7]
  Kd: 30 ± 2 nM
